Laboratory results from article PMC4595200, “In vitro analyses of mitochondrial ATP/phosphate carriers from Arabidopsis thaliana revealed unexpected Ca^2+-effects” (BMC Plant Biology, 2015).

Columns and labels:
[1] = substrate: Nc1ncnc2c1ncn2[C@@H]1O[C@H](COP(=O)(O)OP(=O)(O)OP(=O)(O)O)[C@@H](O)[C@H]1O; test: radiolabelled uptake into proteoliposomes; format: biochemical, Arabidopsis thaliana; conditions: ATP import / Pi export (Pi-loaded, 5 mM), no added Ca2+ or Mg2+ (traces ~9 μM each), pH 7.5, 30 °C, 2.5 min, labelled compound, apparent
[2] = substrate: Nc1ncnc2c1ncn2[C@@H]1O[C@H](COP(=O)(O)OP(=O)(O)O)[C@@H](O)[C@H]1O; test: radiolabelled uptake into proteoliposomes; format: biochemical, Arabidopsis thaliana; conditions: ADP import / ATP export (ATP-loaded, 5 mM), no added Ca2+ or Mg2+, pH 7.5, 30 °C, 2.5 min, labelled compound, apparent
purified protein [3] = substrate: Nc1ncnc2c1ncn2[C@@H]1O[C@H](COP(=O)(O)OP(=O)(O)OP(=O)(O)O)[C@@H](O)[C@H]1O; test: purified protein; conditions: ATP import / Pi export (Pi-loaded, 5 mM), no added Ca2+ or Mg2+ (traces ~9 μM each), pH 7.5, 30 °C, 2.5 min, labelled compound, apparent
purified protein [4] = substrate: Nc1ncnc2c1ncn2[C@@H]1O[C@H](COP(=O)(O)OP(=O)(O)O)[C@@H](O)[C@H]1O; test: purified protein; conditions: ADP import / ATP export (ATP-loaded, 5 mM), no added Ca2+ or Mg2+, pH 7.5, 30 °C, 2.5 min, labelled compound, apparent

| Protein | Km [1] | Vmax [1] | Km [2] | Vmax [2] | Km (purified protein [3]) | Vmax (purified protein [3]) | Km (purified protein [4]) | Vmax (purified protein [4]) |
| --- | --- | --- | --- | --- | --- | --- | --- | --- |
| AtAPC3 (Arabidopsis thaliana) (protein) MESSKPKNRNPMKKPVSITMEHVLLALRETMDEREIRIRSLFDFFDNSNLGFLDYAQIEKGLASLQIPPEYKYARDLFRVCDANRDGRVDYQEFRRYIDAKELELYRIFQAIDVEHNGCILPEELWEALVKAGIEIDDEELARFVEHVDKDNNGTITFEEWRDFLLLYPHEATLENIYHHWERVCLIDIGEQAVIPDGISKHVKRSRLLLAGGLAGAVSRTATAPLDRLKVVLQVQRAHAGVLPTIKKIWREDKLMGFFRGNGLNVMKVAPESAIKFCAYEMLKPMIGGEDGDIGTSGRLMAGGMAGALAQTAIYPMDLVKTRLQTCVSEGGKAPKLWKLTKDIWVREGPRAFYKGLFPSLLGIVPYAGIDLAAYETLKDLSRTYILQDTEPGPLIQLSCGMTSGALGASCVYPLQVVRTRMQADSSKTTMKQEFMNTMKGEGLRGFYRGLLPNLLKVVPAASITYIVYEAMKKNMALD | 113 (±17) μM | 282 (±20) nmol mg protein^-1 h^-1 | 72 (±5) μM | 770 (±90) nmol mg protein^-1 h^-1 |  |  |  |  |
| AtAPC2 (Arabidopsis thaliana) (protein) MEATKSSKQNCCNPVKKPGPVSIDHVLLALRETREERDLRIRSLFSFFDSENVGYLDCAQIEKGLCALQIPSGYKYAKELFRVCDANRDGRVDYHEFRRYMDDKELELYRIFQAIDVEHNGCISPEGLWDSLVKAGIEIKDEELARFVEHVDKDNDGIIMFEEWRDFLLLYPHEATIENIYHHWERVCLVDIGEQAVIPEGISKHIKRSNYFIAGGIAGAASRTATAPLDRLKVLLQIQKTDARIREAIKLIWKQGGVRGFFRGNGLNIVKVAPESAIKFYAYELFKNAIGENMGEDKADIGTTVRLFAGGMAGAVAQASIYPLDLVKTRLQTYTSQAGVAVPRLGTLTKDILVHEGPRAFYKGLFPSLLGIIPYAGIDLAAYETLKDLSRTYILQDAEPGPLVQLGCGTISGALGATCVYPLQVVRTRMQAERARTSMSGVFRRTISEEGYRALYKGLLPNLLKVVPAASITYMVYEAMKKSLELD | 95 (±12) μM | 212 (±24) nmol mg protein^-1 h^-1 | 374 (±40) μM | 778 (±82) nmol mg protein^-1 h^-1 |  |  |  |  |
| AtAPC1 (Arabidopsis thaliana) (protein) MEAEKSKQNPGKKPVEATMEHVLVALRETKEKREIRIQKLFEFFDNSKLGFLDDTQIEKGLSSLSIPPKYRYASDFLKVCDSNRDGRVDYQEFRRYMDAKELELYKIFQAIDIEHNGDICPAELWEALDKAGIKIKDEELASFMEHVDKDNNGIITFEEWRDFLLLNPHEATIENIYHHWERVCLIDIGEQAVIPDGISAHAQRSKLLLAGGIAGAVSRTATAPLDRLKVALQVQRTNLGVVPTIKKIWREDKLLGFFRGNGLNVAKVAPESAIKFAAYEMLKPIIGGADGDIGTSGRLLAGGLAGAVAQTAIYPMDLVKTRLQTFVSEVGTPKLWKLTKDIWIQEGPRAFYRGLCPSLIGIIPYAGIDLAAYETLKDLSRAHFLHDTAEPGPLIQLGCGMTSGALGASCVYPLQVIRTRMQADSSKTSMGQEFLKTLRGEGLKGFYRGIFPNFFKVIPSASISYLVYEAMKKNLALD |  |  |  |  | 68 (6) μM | 201(±14) nmol mg protein^-1 h^-1 | 180 (±15) μM | 2078 (±315) nmol mg protein^-1 h^-1 |
